Measured values reported in paper doi:10.1101/2022.02.07.479471 (bioRxiv, 2022).

Target: SARS-CoV-2 nsp12 (RNA-dependent RNA polymerase with N-terminal NiRAN domain) (SARS-CoV-2, UniProt P0DTD1)
Assay: cryo-EM structure

B1: SARS-CoV-2 nsp9 with native N-terminus (natural protein)
chain: NNELSPVALRQMSCAAGTTQTACTDDNALAYYNTTKGGRFVLALLSDLQDLKWARFPKSDGTGTIYTELEPPCRFVTDTPKGPKVKYLYFIKGLNNLNRGMVLGSLAATVRLQ
  binding result: binds
